This is an account of results in IntAct's records for PubMed 29039417.

Sequences and labels used below:
B1: BBSome complex member BBS1 (Homo sapiens), Q8NFJ9 (parent)
chain: MAAASSSDSDACGAESNEANSKWLDAHYDPMANIHTFSACLALADLHGDGEYKLVVGDLGPGGQQPRLKVLKGPLVMTESPLPALPAAAATFLMEQHEPRTPALALASGPCVYVYKNLRPYFKFSLPQLPPNPLEQDLWNQAKEDRIDPLTLKEMLESIRETAEEPLSIQSLRFLQLELSEMEAFVNQHKSNSIKRQTVITTMTTLKKNLADEDAVSCLVLGTENKELLVLDPEAFTILAKMSLPSVPVFLEVSGQFDVEFRLAAACRNGNIYILRRDSKHPKYCIELSAQPVGLIRVHKVLVVGSTQDSLHGFTHKGKKLWTVQMPAAILTMNLLEQHSRGLQAVMAGLANGEVRIYRDKALLNVIHTPDAVTSLCFGRYGREDNTLIMTTRGGGLIIKILKRTAVFVEGGSEVGPPPAQAMKLNVPRKTRLYVDQTLREREAGTAMHRAFQTDLYLLRLRAARAYLQALESSLSPLSTTAREPLKLHAVVQGLGPTFKLTLHLQNTSTTRPVLGLLVCFLYNEALYSLPRAFFKVPLLVPGLNYPLETFVESLSNKGISDIIKVLVLREGQSAPLLSAHVNMPGSEGLAAA
partner: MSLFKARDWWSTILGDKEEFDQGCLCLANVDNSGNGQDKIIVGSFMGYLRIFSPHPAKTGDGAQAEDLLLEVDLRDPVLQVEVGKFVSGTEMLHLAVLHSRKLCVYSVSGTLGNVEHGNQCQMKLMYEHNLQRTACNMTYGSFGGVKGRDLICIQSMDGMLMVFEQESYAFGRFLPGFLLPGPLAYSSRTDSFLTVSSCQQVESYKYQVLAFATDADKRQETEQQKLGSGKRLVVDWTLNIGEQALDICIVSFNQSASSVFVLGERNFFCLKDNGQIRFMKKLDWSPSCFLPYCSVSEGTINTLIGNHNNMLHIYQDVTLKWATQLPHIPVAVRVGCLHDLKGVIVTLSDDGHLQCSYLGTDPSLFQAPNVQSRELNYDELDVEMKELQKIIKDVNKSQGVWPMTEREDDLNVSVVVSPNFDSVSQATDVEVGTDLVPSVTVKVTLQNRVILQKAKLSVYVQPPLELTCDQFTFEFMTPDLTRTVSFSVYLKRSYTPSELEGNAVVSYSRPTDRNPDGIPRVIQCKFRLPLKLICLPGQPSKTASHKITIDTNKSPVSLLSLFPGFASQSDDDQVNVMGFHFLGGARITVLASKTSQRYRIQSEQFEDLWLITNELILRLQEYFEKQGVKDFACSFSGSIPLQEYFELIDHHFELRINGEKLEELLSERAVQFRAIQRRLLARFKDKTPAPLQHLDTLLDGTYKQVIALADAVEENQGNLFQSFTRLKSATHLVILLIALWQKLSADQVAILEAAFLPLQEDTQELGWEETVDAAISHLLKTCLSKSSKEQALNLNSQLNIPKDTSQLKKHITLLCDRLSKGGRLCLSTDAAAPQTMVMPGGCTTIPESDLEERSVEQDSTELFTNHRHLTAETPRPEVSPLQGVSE

Variants of B1 are the subject of the test. The conditions noted are these: with pthb1_human BBS9, Q3SYG4.
Regarding MAAASSSDSDACGAESNEANSKWLDAHYDPMANIHTFSACLALADLHGDGEYKLVVGDLGPGGQQPRLKVLKGPLVMTESPLPALPAAAATFLMEQHEPRTPALALASGPCVYVYKNLRPYFKFSLPQLPPNPLEQDLWNQAKEDRIDPLTLKEMLESIRETAEEPLSIQSLRFLQLELSEMEAFVNQHKSNSIKRQTVITTMTTLKKNLADEDAVSCLVLGTENKELLVLDPEAFTILAKMSLPSVPVFLEVSGQFDVEFRLAAACRNGNIYILRRDSKHPKYCIELSAQPVGLIRVHKVLVVGSTQDSLHGFTHKGKKLWTVQMPAAILTMNLLEQHSRGLQAVMAGLANGEVRIYRDKALLNVIHTPDAVTSLCFGRYGREDNTLIMTTRGGGLIIKILKRTAVFVEGGSEVGPPPAQAMKLNVPRKTRLYVDQTLREREAGTAMHRAFQTDLYLLRLRAARAYLQALESSLSPLSTTAREPLKLHAVVQGLGPTFKLTLHLQNTSTTRPVLGLLVCFLYNEALYSLPRAFFKVPLLVPGLNYPLETFVESLSNKGISDIIKVLVLREGQSAALLSAHVNMPGSEGLAAA [P576A], the “effect of a mutation on the interaction” value is recorded as “with no effect”. MAAASSSDSDACGAESNEANSKWLDAHYDPMANIHTFSACLALADLHGDGEYKLVVGDLGPGGQQPRLKVLKGPLVMTESPLPALPAAAATFLMEQHEPRTPALALASGPCVYVYKNLRPYFKFSLPQLPPNPLEQDLWNQAKEDRIDPLTLKEMLESIRETAEEPLSIQSLRFLQLELSEMEAFVNQHKSNSIKRQTVITTMTTLKKNLADEDAVSCLVLGTENKELLVLDPEAFTILAKMSLPSVPVFLEVSGQFDVEFRLAAACRNGNIYILRRDSKHPKYCIELSAQPVGLIRVHKVLVVGSTQDSLHGFTHKGKKLWTVQMPAAILTMNLLEQHSRGLQAVMAGLANGEVRIYRDKALLNVIHTPDAVTSLCFGRYGREDNTLIMTTRGGGLIIKILKRTAVFVEGGSEVGPPPAQAMKLNVPRKTRLYVDQTLREREAGTAMHRAFQTDLYLLRLRAARAYLQALESSLSPLSTTAREPLKLHAVVQGLGPTFKLTLHLQNTSTTRPVLGLLVCFLYNEALYSLPRAFFKVPLLVPGLNYPLETFVESLSNKGISDIIKVLVLREGQSAELLSAHVNMPGSEGLAAA [P576E]: the “effect of a mutation on the interaction” value was “with no effect”. With MAAASSSDSDACGAESNEANSKWLDAHYDPMANIHTFSACLALADLHGDGEYKLVVGDLGPGGQQPRLKVLKGPLVMTESPLPALPAAAATFLMEQHEPRTPALALASGPCVYVYKNLRPYFKFSLPQLPPNPLEQDLWNQAKEDRIDPLTLKEMLESIRETAEEPLSIQSLRFLQLELSEMEAFVNQHKSNSIKRQTVITTMTTLKKNLADEDAVSCLVLGTENKELLVLDPEAFTILAKMSLPSVPVFLEVSGQFDVEFRLAAACRNGNIYILRRDSKHPKYCIELSAQPVGLIRVHKVLVVGSTQDSLHGFTHKGKKLWTVQMPAAILTMNLLEQHSRGLQAVMAGLANGEVRIYRDKALLNVIHTPDAVTSLCFGRYGREDNTLIMTTRGGGLIIKILKRTAVFVEGGSEVGPPPAQAMKLNVPRKTRLYVDQTLREREAGTAMHRAFQTDLYLLRLRAARAYLQALESSLSPLSTTAREPLKLHAVVQGLGPTFKLTLHLQNTSTTRPVLGLLVCFLYNEALYSLPRAFFKVPLLVPGLNYPLETFVESLSNKGISDIIKVLVLREGQSAKLLSAHVNMPGSEGLAAA [P576K] the entry was “disrupting interaction strength”. For MAAASSSDSDACGAESNEANSKWLDAHYDPMANIHTFSACLALADLHGDGEYKLVVGDLGPGGQQPRLKVLKGPLVMTESPLPALPAAAATFLMEQHEPRTPALALASGPCVYVYKNLRPYFKFSLPQLPPNPLEQDLWNQAKEDRIDPLTLKEMLESIRETAEEPLSIQSLRFLQLELSEMEAFVNQHKSNSIKRQTVITTMTTLKKNLADEDAVSCLVLGTENKELLVLDPEAFTILAKMSLPSVPVFLEVSGQFDVEFRLAAACRNGNIYILRRDSKHPKYCIELSAQPVGLIRVHKVLVVGSTQDSLHGFTHKGKKLWTVQMPAAILTMNLLEQHSRGLQAVMAGLANGEVRIYRDKALLNVIHTPDAVTSLCFGRYGREDNTLIMTTRGGGLIIKILKRTAVFVEGGSEVGPPPAQAMKLNVPRKTRLYVDQTLREREAGTAMHRAFQTDLYLLRLRAARAYLQALESSLSPLSTTAREPLKLHAVVQGLGPTFKLTLHLQNTSTTRPVLGLLVCFLYNEALYSLPRAFFKVPLLVPGLNYPLETFVESLSNKGISDIIKVLVLREGQSAPLLAAHVNMPGSEGLAAA [S579A] the value was “with no effect”; for MAAASSSDSDACGAESNEANSKWLDAHYDPMANIHTFSACLALADLHGDGEYKLVVGDLGPGGQQPRLKVLKGPLVMTESPLPALPAAAATFLMEQHEPRTPALALASGPCVYVYKNLRPYFKFSLPQLPPNPLEQDLWNQAKEDRIDPLTLKEMLESIRETAEEPLSIQSLRFLQLELSEMEAFVNQHKSNSIKRQTVITTMTTLKKNLADEDAVSCLVLGTENKELLVLDPEAFTILAKMSLPSVPVFLEVSGQFDVEFRLAAACRNGNIYILRRDSKHPKYCIELSAQPVGLIRVHKVLVVGSTQDSLHGFTHKGKKLWTVQMPAAILTMNLLEQHSRGLQAVMAGLANGEVRIYRDKALLNVIHTPDAVTSLCFGRYGREDNTLIMTTRGGGLIIKILKRTAVFVEGGSEVGPPPAQAMKLNVPRKTRLYVDQTLREREAGTAMHRAFQTDLYLLRLRAARAYLQALESSLSPLSTTAREPLKLHAVVQGLGPTFKLTLHLQNTSTTRPVLGLLVCFLYNEALYSLPRAFFKVPLLVPGLNYPLETFVESLSNKGISDIIKVLVLREGQSAPALSAHVNMPGSEGLAAA [L577A], “with no effect”.
